No end group written: not given here.
Tests used:
U937 cells = assay: Pro-inflammatory gene expression (qRT-PCR) in LPS-activated U937 cells; type: cell-based, human; settings: LPS 100 ng/mL, 18 h, BAR502 and clofibrate 5 and 10 μM, compound 1 10 μM
Experimental: U937 cell line were cultured in RPMI 1640 supplemented with 10% FBS, 1% glutamine, and 1% penicillin/streptomycin and were regularly passaged to maintain exponential growth. After 24 h of starvation cells were classically activated with LPS (100 ng/mL; Sigma-Aldrich, St. Louis, MO), and exposed or not to BAR502, clofibrate and compound 1 at the concentration of 5 and 10 μM for 18 h. At the end of the experiment the cells were recovered. Total mRNA extraction from U937 and 3T3.L1 was performed using Tri-Reagent (Zymo Research) and Direct-zolTM RNA MiniPrep w/Zymo-SpinTM IIC Columns (Zymo Research, Irvine, CA). After purification from genomic DNA using DNase I (Thermo Fisher Scientific, Waltham, MA), 1 μg of RNA from each sample was reverse transcribed using Kit […] Basic (Nippon Genetics, […] 20-μL of reaction volume; 50 ng of cDNA was amplified in a 20-μL solution containing 200 nM each primer and 10 μL of PowerUpTM SYBRTM Green Master Mix (Thermo Fisher Scientific, Waltham, MA). All reactions were performed in triplicate using the following thermal cycling conditions: 3 min at 95°C, followed by 40 cycles of 95°C for 15 s, 56°C for 20 s, and 72°C for 30 s, using a QuantStudio 3 system (Applied Biosystems, Foster City, CA). The relative mRNA expression was calculated accordingly to the ΔCt method. Primers were designed using the software PRIMER3 (http://frodo.wi.mit.edu/primer3/) using published data obtained from the NCBI database. The primer used were as following (forward and reverse): hGAPDH (for […]-1β (for [NT], hIL6 (for [NT] hCXCL2 (for [NT] hTNFα; (for [NT], mAdiponectin (for […]ɤ (for [NT], mCebp (for [NT]

[1] = Microsomal stability in human liver microsomes; type: in vitro ADME
Experimental: Chemical stability in HCl Buffer, PBS buffer and culture medium (EMEM) was evaluated by LC-MS dissolving compound 1 at 10 μM (final concertation) in cited buffers and injecting aliquots removed from incubations at different time points. Microsomal stability was evaluated employing 50 mM potassium phosphate buffer (pH 7.4) containing 0.15 mg of Human liver microsomes (Sigma-Aldrich, St. Louis, MO, United States) 5 mM MgCl2, 1 mM NADPH, 5 mM glucose 6-phosphate, 0.4 U·mL^−1 glucose 6-phosphate dehydrogenase. Compounds were tested at 1 µM final concentration. Aliquots, removed at different time points, were diluted with ice-cold acetonitrile and analyzed by LC-MS.

PPARα LBD GST fused = molecular target: T1, PPARα LBD GST fused; assay: AlphaScreen or HTRF; coactivator recruitment; 20 nM GST-PPARα-LBD, 60 nM biotinylated SRC1 peptide, 20 μg/mL donor and acceptor beads; 50 mM MOPS, 50 mM NaF, 0.05 mM CHAPS, 0.05% BSA, pH 7.4; 25 μL, 384 wells; compounds at 50 μM for efficacy (% vs. fenofibrate)
T1 sequence (Q07869 whole entry, species assumed, looked up): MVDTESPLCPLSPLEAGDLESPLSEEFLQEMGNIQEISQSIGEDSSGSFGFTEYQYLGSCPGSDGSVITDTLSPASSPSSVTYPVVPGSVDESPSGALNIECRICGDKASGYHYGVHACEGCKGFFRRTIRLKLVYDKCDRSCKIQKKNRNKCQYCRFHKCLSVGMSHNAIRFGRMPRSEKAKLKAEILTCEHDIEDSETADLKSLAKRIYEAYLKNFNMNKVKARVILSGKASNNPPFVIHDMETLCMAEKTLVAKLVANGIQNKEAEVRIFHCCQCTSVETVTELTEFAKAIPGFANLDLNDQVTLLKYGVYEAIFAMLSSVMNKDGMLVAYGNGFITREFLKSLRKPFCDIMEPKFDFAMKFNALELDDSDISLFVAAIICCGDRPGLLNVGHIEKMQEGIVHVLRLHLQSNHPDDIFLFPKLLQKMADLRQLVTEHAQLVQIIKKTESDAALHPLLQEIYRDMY

FXR-LBD GST-fused = molecular target: T2, FXR-LBD GST-fused; assay: AlphaScreen or HTRF; coactivator recruitment; 10 nM GST-FXR-LBD, 30 nM biotinylated SRC1 peptide, 20 μg/mL donor and acceptor beads; 50 mM Tris-HCl pH 7.4, 20 mM KCl, 1 mM DTT, 0.1% BSA; 25 μL, 384 wells; compounds at 10 μM for efficacy (% vs. CDCA), concentration-response for EC50
T2 sequence (Q96RI1 whole entry, species assumed, looked up): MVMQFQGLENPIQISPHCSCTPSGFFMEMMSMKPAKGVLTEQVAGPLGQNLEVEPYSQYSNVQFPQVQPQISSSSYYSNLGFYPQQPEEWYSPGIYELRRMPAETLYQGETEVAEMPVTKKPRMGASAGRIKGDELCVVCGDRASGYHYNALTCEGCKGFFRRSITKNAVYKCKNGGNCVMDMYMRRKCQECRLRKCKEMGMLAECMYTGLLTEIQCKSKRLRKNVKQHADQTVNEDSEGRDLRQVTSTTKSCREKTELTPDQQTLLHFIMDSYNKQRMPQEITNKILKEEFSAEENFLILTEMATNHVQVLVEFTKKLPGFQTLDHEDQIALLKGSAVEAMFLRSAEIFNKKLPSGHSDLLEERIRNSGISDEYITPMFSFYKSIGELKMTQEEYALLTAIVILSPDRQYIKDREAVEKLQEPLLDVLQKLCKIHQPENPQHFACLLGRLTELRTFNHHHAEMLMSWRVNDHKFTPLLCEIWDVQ

CCOC(=O)C(C)(C)Oc1ccc(Cl)cc1 [clofibrate]
IL-1β mRNA expression (U937 cells): reducing the expression of pro-inflammatory cytokines | IL-6 mRNA expression (U937 cells): reducing the expression of pro-inflammatory cytokines | Time to conversion in clofibric acid in human microsomes [1]: ≤ 30 min

B1: biotinylated SRC1 peptide (peptide)
peptide: CPSSHSSLTERHKILHRLLQEGSPS
modifications: also: biotin, position not given here
efficacy of SRC-1 recruitment with BAR502 (% vs. fenofibrate) (% vs. fenofibrate) (PPARα LBD GST fused): 36 | efficacy of SRC-1 recruitment with BAR505 (% vs. fenofibrate) (% vs. fenofibrate) (PPARα LBD GST fused): 40 | EC50 of compound 1 for SRC-1 recruitment (the compound is titrated) (FXR-LBD GST-fused): 3.4 µM | EC50 of compound 3 for SRC-1 recruitment (the compound is titrated) (FXR-LBD GST-fused): 17.9 µM | EC50 of the compound BAR502 for SRC-1 recruitment (the compound is titrated) (FXR-LBD GST-fused): 0.69 µM | efficacy of SRC-1 recruitment with BAR502 (% vs. CDCA) (FXR-LBD GST-fused): 153 % vs. CDCA | efficacy of SRC-1 recruitment with compound 1 (% vs. CDCA) (FXR-LBD GST-fused): 79 % vs. CDCA | efficacy of SRC-1 recruitment with compound 3 (% vs. CDCA) (FXR-LBD GST-fused): 48 % vs. CDCA

— publication PMC11289669, “BAR502/fibrate conjugates: synthesis, biological evaluation and metabolic profile” (Frontiers in Chemistry, 2024)
